Laboratory results: publication PMC7005798, “Increased circulating levels of Factor H-Related Protein 4 are strongly associated with age-related macular degeneration” (Nature Communications, 2020)
Values belong to the binder of their own block, whether it stands above or below them.

Assays:
C3b [1] = target: T1, C3b (human, UniProt P01024 23-667; P01024 749-1663); test: ELISA; solid-phase binding assay: C3b adsorbed on microtiter wells (1 ug per well); 100 nM FH or FHL-1 mixed with rising FHR-4 up to 500 nM, 4 h at room temperature in 20 mM HEPES, 130 mM NaCl, 0.05% Tween-20, pH 7.3; bound FH or FHL-1 detected with the OX23 antibody; settings: both partners purified
T1 construct: complement C3 beta chain, human; Two disulfide-linked chains cut from the C3 precursor; also called human C3b; complement C3b; source: bought: VWR International, catalogue no; 204860 (purified)

C3b [2] = target: T1, C3b; test: cell-based or functional assay

T1 sequence (P01024 23-667, chain 1 of 2): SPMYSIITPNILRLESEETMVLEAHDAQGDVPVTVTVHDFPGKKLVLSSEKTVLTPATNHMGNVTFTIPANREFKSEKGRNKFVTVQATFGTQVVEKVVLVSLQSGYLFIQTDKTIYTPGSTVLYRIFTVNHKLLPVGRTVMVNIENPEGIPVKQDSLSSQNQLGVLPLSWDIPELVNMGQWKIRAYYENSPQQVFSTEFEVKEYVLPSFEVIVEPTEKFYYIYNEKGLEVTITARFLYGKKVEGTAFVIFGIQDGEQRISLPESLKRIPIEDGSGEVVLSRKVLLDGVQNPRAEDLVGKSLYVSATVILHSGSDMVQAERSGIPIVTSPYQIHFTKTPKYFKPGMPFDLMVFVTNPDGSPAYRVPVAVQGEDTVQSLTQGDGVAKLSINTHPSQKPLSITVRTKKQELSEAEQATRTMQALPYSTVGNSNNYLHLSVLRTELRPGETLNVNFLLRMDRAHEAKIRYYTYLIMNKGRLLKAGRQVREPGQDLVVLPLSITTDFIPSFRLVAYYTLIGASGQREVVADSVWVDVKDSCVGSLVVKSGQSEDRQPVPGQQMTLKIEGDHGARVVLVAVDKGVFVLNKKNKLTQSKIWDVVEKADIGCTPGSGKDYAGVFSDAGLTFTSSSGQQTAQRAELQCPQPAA
T1 sequence (P01024 749-1663, chain 2 of 2): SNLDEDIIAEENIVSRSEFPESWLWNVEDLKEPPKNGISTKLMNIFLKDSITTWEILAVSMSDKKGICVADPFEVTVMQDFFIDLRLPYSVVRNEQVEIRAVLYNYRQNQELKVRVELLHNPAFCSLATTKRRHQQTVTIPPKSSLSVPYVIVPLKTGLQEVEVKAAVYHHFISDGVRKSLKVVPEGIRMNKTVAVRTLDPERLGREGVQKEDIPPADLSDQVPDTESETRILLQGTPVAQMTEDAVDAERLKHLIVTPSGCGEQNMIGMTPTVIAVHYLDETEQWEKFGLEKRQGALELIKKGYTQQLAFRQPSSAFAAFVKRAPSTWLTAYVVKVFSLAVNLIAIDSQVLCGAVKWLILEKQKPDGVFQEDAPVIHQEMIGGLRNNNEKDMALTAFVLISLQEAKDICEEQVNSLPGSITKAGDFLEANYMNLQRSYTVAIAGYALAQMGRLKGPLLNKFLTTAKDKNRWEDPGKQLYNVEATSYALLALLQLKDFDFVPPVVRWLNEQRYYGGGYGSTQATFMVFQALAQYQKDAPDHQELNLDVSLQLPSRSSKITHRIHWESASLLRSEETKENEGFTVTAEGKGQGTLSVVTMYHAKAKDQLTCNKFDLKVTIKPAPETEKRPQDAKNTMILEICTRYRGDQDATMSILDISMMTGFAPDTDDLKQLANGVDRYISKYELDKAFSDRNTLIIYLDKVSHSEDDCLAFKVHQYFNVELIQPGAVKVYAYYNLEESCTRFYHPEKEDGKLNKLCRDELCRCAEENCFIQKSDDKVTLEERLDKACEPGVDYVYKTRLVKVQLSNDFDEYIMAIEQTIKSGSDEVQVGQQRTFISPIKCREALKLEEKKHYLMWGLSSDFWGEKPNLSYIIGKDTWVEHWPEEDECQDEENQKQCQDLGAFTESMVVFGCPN

binding result (C3b [1]): binds
B1: complement factor H (FH) (natural protein, human, UniProt P08603 19-1231, looked up)
chain: EDCNELPPRRNTEILTGSWSDQTYPEGTQAIYKCRPGYRSLGNVIMVCRKGEWVALNPLRKCQKRPCGHPGDTPFGTFTLTGGNVFEYGVKAVYTCNEGYQLLGEINYRECDTDGWTNDIPICEVVKCLPVTAPENGKIVSSAMEPDREYHFGQAVRFVCNSGYKIEGDEEMHCSDDGFWSKEKPKCVEISCKSPDVINGSPISQKIIYKENERFQYKCNMGYEYSERGDAVCTESGWRPLPSCEEKSCDNPYIPNGDYSPLRIKHRTGDEITYQCRNGFYPATRGNTAKCTSTGWIPAPRCTLKPCDYPDIKHGGLYHENMRRPYFPVAVGKYYSYYCDEHFETPSGSYWDHIHCTQDGWSPAVPCLRKCYFPYLENGYNQNYGRKFVQGKSIDVACHPGYALPKAQTTVTCMENGWSPTPRCIRVKTCSKSSIDIENGFISESQYTYALKEKAKYQCKLGYVTADGETSGSITCGKDGWSAQPTCIKSCDIPVFMNARTKNDFTWFKLNDTLDYECHDGYESNTGSTTGSIVCGYNGWSDLPICYERECELPKIDVHLVPDRKKDQYKVGEVLKFSCKPGFTIVGPNSVQCYHFGLSPDLPICKEQVQSCGPPPELLNGNVKEKTKEEYGHSEVVEYYCNPRFLMKGPNKIQCVDGEWTTLPVCIVEESTCGDIPELEHGWAQLSSPPYYYGDSVEFNCSESFTMIGHRSITCIHGVWTQLPQCVAIDKLKKCKSSNLIILEEHLKNKKEFDHNSNIRYRCRGKEGWIHTVCINGRWDPEVNCSMAQIQLCPPPPQIPNSHNMTTTLNYRDGEKVSVLCQENYLIQEGEEITCKDGRWQSIPLCVEKIPCSQPPQIEHGTINSSRSSQESYAHGTKLSYTCEGGFRISEENETTCYMGKWSSPPQCEGLPCKSPPEISHGVVAHMSDSYQYGEEVTYKCFEGFGIDGPAIAKCLGEKWSHPPSCIKTDCLSLPSFENAIPMGEKKDVYKAGEQVTYTCATYYKMDGASNVTCINSRWTGRPTCRDTSCVNPPTVQNAYIVSRQMSKYPSGERVRYQCRSPYEMFGDEEVMCLNGNWTEPPQCKDSTGKCGPPPPIDNGDITSFPLSVYAPASSVEYQCQNLYQLEGNKRITCRNGQWSEPPKCLHPCVISREIMENYNIALRWTAKQKLYSRTGESVEFVCKRGYRLSSRSHTLRTTCWDGKLEYPTCAKR
notes: complement factor H, commercially available purified protein; also called CFH; source: bought: Sigma-Aldrich, catalogue no; C5813 (purified)

inhibition of FHL-1/FI-mediated C3b α-chain cleavage in the fluid phase (blocks FHL-1 with C3b); FHR-4 up to a 5-fold molar excess over FHL-1, dose-dependent (C3b [2]): 2.5 fold molar excess of FHR-4 over FHL-1 for 50% reduction
B2: Recombinant Factor H-Related Protein 4 (FHR-4), FHR-4B variant (natural protein, human, UniProt Q92496-3 20-331, looked up)
chain: EVKPCDFPEIQHGGLYYKSLRRLYFPAAAGQSYSYYCDQNFVTPSGSYWDYIHCTQDGWSPTVPCLRTCSKSDIEIENGFISESSSIYILNKEIQYKCKPGYATADGNSSGSITCLQNGWSAQPICIKFCDMPVFENSRAKSNGMRFKLHDTLDYECYDGYEISYGNTTGSIVCGEDGWSHFPTCYNSSEKCGPPPPISNGDTTSFLLKVYVPQSRVEYQCQSYYELQGSNYVTCSNGEWSEPPRCIHPCIITEENMNKNNIQLKGKSDIKYYAKTGDTIEFMCKLGYNANTSVLSFQAVCREGIVEYPRCE
